Source: patent US10100341B2, “Tailored oils produced from recombinant oleaginous microorganisms” (Corbion Biotech, Inc., priority 2011, dated 2018)

The molecules below were run on Prototheca moriformis (UTEX 1435) (assay: cDNA abundance by real-time RT-PCR under nitrogen depletion). Conditions: after 24 hours of culture in low nitrogen medium.
Format: cell-based
Protocol: A cDNA library was generated from Prototheca moriformis (UTEX 1435) using standard techniques. The Prototheca moriformis cells were grown for 48 hours under nitrogen replete conditions. […] After about 24 hours in culture, the nitrogen supply in the media was completely depleted. The collected samples were immediately frozen using dry ice and isopropanol. Total RNA was subsequently isolated from the frozen cell pellet samples and a portion from each sample was held in reserve for RT-PCR studies. The rest of the total RNA harvested from the samples was subjected to polyA selection. Equimolar amounts of polyA selected RNA from each condition was then pooled and used to generate a cDNA library in vector pcDNA 3.0 (Invitrogen). Roughly 1200 clones were randomly picked from the resulting pooled cDNA library and subjected to sequencing on both strands. Approximately 68 different cDNAs were selected from among these 1200 sequences and used to design cDNA-specific primers for use in real-time RT-PCR studies. RNA isolated from the cell pellet samples that were held in reserve was used as substrate in the real time RT-PCR studies using the cDNA-specific primer sets generated above. This reserved RNA was converted into cDNA and used as substrate for RT-PCR for each of the 68 gene specific primer sets. […] As discussed in the specification, nitrogen depletion/limitation is a known inducer of lipogenesis in oleaginous microorganisms. Fold increase refers to the fold increase in cDNA abundance after 24 hours of culture in low nitrogen medium.

Molecule | Fold increased (cDNA abundance)
SugT Sugar transporter promoter/5′UTR: putative nitrogen-regulated promoter/5′UTR, SEQ ID NO: 59 (nucleic acid, listed as Prototheca moriformis) DNA: CCAGGCAGGCGGTAGGGTTGCCGATTGCTTGAGCGAATTGGAAGATATAATTTTTTGTGGTGTCCCTGGACGCTGTTTGTGGCGCTCCTTTTTGGAGAAGATTGCGTGGGGGAGCTTTCCATGTACCACGCTTCCTTCTGAAAGGATTCTGGCCGAGTCCTGATGAGCCCAAAGAAAACACCTGCCTTTCAGTGCTGGCACTCTGAAAACGTCAACAGATGATTATACATGTCACAAAAGGCAGCCGATTAGGAACGGGAGCTCTGGCCGTTCGTTTGGCTGCCTGGGCTGATTGAAGTGATCCACCCTGTTCGAATGAAGGCGGTCGAGTCGAATTATCGACCGGAGCTGTCGGGAAGGCGTCCGGGGCAGAGTGAGGTGCTGCGGCCTGGTTGTCGTTCAAAAAGACCCCGGTAGCCCAACAATCACGAACGAAAGGAATATAATTGCTTGCATACTATACATTCAGTTTCTATGTGGCGGGTAGACAAGTCTCATGGGCTTCTAAAGGCTGTCCCTTGAAGGCTACTTATAAAAACTTGCTGCGCCATGGCACGGATCGCGCTTGCGCAGGCTGCAACCCTGCGCGCAAGGTCAAATACACAGCAAAAGATACTAACAGAATTTCTAAAAACATTTAAATATTTGTTTCGACCAGCCAATTGTGGTCGTAGGCACGCAAAAGACTTTGTTTTGCGCCCACCGAGCATCCACGCTGGCAGTCAAGCCAGTCCGATGTGCATTGCGTGGCAGCATCGAGGAGCATCAAAAACCTCGTGCACGCTTTTCTGTCAATCATCATCAACCACTCCACCATGTATACCCGATGCATCGCGGTGCGCAGCGCGCCACGCGTCCCAGACCCGCCCAAAAACCCAGCAGCGGCGAAAGCAAATCTTCACTTGCCCGAAACCCCGAGCAGCGGCATTCACACGTGGGCGAAAACCCCACTTGCCCTAACAGGCGTATGTCTGCTGTCACGATGCCTGACAACGGTATTATAGATATACACTGATTAATGTTTGAGTGTGTGCGAGTCGCGAATCAGGAATGAATTGCTAGTAGGCACTCCGACCGGGCGGGGGCCGAGGGACCA | 17.35
Flap Flagellar-associated protein promoter/5′UTR: putative nitrogen-regulated promoter/5′UTR, SEQ ID NO: 57 (nucleic acid, listed as Prototheca moriformis) DNA: CAACGACAACCAGCAGGCAACTCGGTCAGCGACCCAACACGCGAGTCAAATTGTTGCGTGTTCTTGCCTTGTCTATTTACTGTGATAGCAAGACTGTCGGTCAGTCAATACCGCGGTGCGCACGTCGGGGTGCCAAGCCTAGCAGAGCACGGGACGGCTGGTGCTGTGCGCCAGCTCAGCTCGCTTCGCGACCAATTGTAGGACCGGCAAAGTCACCAAAACATGCCAGCGGTGCGATTCAATTGGTCATGAGCTCTACAAAATTGTTTTGTGCGTCGCGCAGGTATCCAACGGCGCGGCAGAGAAAGTTTGACAGCTCTCGATTTCATCTCGGAAAAATGGGGAGAATTTATGACACACAAGTGCGCAGGCGGCCCAGGCGGCCAGCATATTCTGGCGTGACCTGGGCCGCCCACAAAATGCTTGGATGCACTCTAAAATAATTATATTTGCCATGAACAAGGGAAGAGTTACCGCACCCAGCCCTAGACTTGGGCGCCCGAGCAAGGTTACGTCAAGCCACCTTCGCCCATCGCCCAACTCCGTATTCCCCGACAGCCGCACGTGGCCCTCGCCGGAATGAACCCTGAATCGGCATCACGCCACGCGTTCGCCAATCGTTCCGCTCTCTGGCTTCATCGGCCTGCGCCTTCACGTCGTGGTCACGACAGTGCATTCATACTTCCATTTGCACCTCGGCACACACTTTTACGCATCGCCTACCCTTGCTGCGGCAGTCTAGGGTCACTTTGCAGCCATGGGACAGTGCTACACCACCGTCGGTGCGCAAAGCTATTTCAAGTGAACCGTGGGCGGAAAAAAGGAATGTACACTGTCTCAACCGACTCCTACAATTGTTTACCATGCAGATCAGAGCTCGACGGCCATCATCGAGCAGGTGTGGGGCCTTGGTGGCGCGGCGCGGGGCCCCAGGGCGTCGCAGGCATTGATGGCACTCTGAGACTTTCGCACGCGCATGAGGGACCCCATCAAGAGAAGAGTGTGTCTTTATGTCCCCATTCATGATGATGTATCTTGTGATTGTCGCAGTTTGGCAAGTTTAACCGGATCGCCGCTCCAGGTGTGGCGTGGCGGATTTTTCTAGGGGTGCTTGAGCAGTCG | 4.92
Aat01-Amino acid transporter 01 promoter/5′UTR: putative nitrogen-regulated promoter/5′UTR, SEQ ID NO: 62 (nucleic acid, listed as Prototheca moriformis) DNA: CGAAGGGGTCTGCATCGATTCGCGCGGTCTGGAGGCCAGCGTGACTGCTCGCGAAAATGCTCTGCCGTGTCGGGCTCTGGCTGGGGCGGCCAGAGATCTCACCGTGCCACACGCAACTGCCGCACTCTGTGCCCGCCACCTGGCGCGCACATGCGACCTCTTCCCCGTCATACCCTCTCCTCATGTGATCTTTCCACACGAGTGACGCAGGTGCGCGGAGTGGAGGGAATCAGGACGTTTTCAAGGTACCTGCTCGAGCCGTACCAACAGCTGCCGCCCGGCAAGGAAGAGATCGAGGCAGAGATTGCCCGGCTGGAGGCCCGGATAACGGAGCTCAAGAGCAAGCTGTCCGAGTGAGACCGCCCAGGTGCACGTGTCGACTCGCTATGACATGTACTCGACACAACATGAGGAATTCATCGAATTTGTAGGAAGCGGGCATTGGTACGGGAGTGGGAAAGCGAAAAAACCTCCCTCCGGCAGTGCCATCTGCCGGAGTCGAACGTTGATAGGGTTCTCGTGACAGGGTGTGACCTCTCAGCCTTGCATCAATTAAACGCTATAGACATTATCAGTAACCGTGAATCCCGCATTGGATGCCACCCGCGCGACCATTGGGGACCTGCATTACAGATCTAGGTGAGATGACAGCGAGGCAACTTCGGCCCGCGGCCCAGCTTGCGGCGCACCAATATTGGTCACGGGAAGCCACACACCGACCATAAATGAATACTTGTAAGCTATGTCAACCGATCAATGGCGTCGAAAGTGTGCCACGAGGATCCATCTGGCGGGGCGGCGTGGCGCACAAGCGCAGTCGCAATTTCTCGGACCCATCTGACCTAGGCCCAGCGCCGCGGGAGAAATCCCCGGCGGGTCCTCCACGCAGTAACCCTAATGAGTATCGAGCGCCGACCATTTACACCATCGCCCCCGAAATCCTTCCGACATTATTATTATCTTTTAGATCTTGGAACAGACTCTGCCAACC | 6.21
Amt03-Ammonium transporter 03 promoter/5′UTR: putative nitrogen-regulated promoter/5′UTR, SEQ ID NO: 60 (nucleic acid, listed as Prototheca moriformis) DNA: GGCCGACAGGACGCGCGTCAAAGGTGCTGGGCGTGTATGCCCTGGTCGGCAGGTCGTTGCTGTTGCTGCGCTCGTGGTTCCGCAACCCTGATTTTGGCGTCTTATTCTGGCGTGGCAAGCGCTGACGCCCGCGAGCCGGGCCGGCGGCGATGCGGTGTCTCACGGCTGCCGAGCTCCAAGGGAGGCAAGAGCGCCCGGATCAGCTGAAGGGCTTTACACGCAAGGTACAGCCGCTCCTGCAAGGCTGCGTGGTGGACTTGAACCTGTAGGTCCTCTGCTGAAGTTCCTCCACTACCTCACCAGGCCCAGCAGACCAAAGCACAGGCTTTTCAGGTCCGTGTCATCCACTCTAAAACACTCGACTACGACCTACTGATGGCCCTAGATTCTTCATCAACAATGCCTGAGACACTTGCTCAGAATTGAAACTCCCTGAAGGGACCACCAGAGGCCCTGAGTTGTTCCTTCCCCCCGTGGCGAGCTGCCAGCCAGGCTGTACCTGTGATCGAGGCTGGCGGGAAAATAGGCTTCGTGTGCTCAGGTCATGGGAGGTGCAGGACAGCTCATGAAACGCCAACAATCGCACAATTCATGTCAAGCTAATCAGCTATTTCCTCTTCACGAGCTGTAATTGTCCCAAAATTCTGGTCTACCGGGGGTGATCCTTCGTGTACGGGCCCTTCCCTCAACCCTAGGTATGCGCGCATGCGGTCGCCGCGCAACTCGCGCGAGGGCCGAGGGTTTGGGACGGGCCGTCCCGAAATGCAGTTGCACCCGGATGCGCGGCGCCTTTCTTGCGATAATTTATGCAATGGACTGCTCTGCAAATTTCTGGGTCTGTCGCCAACCCTAGGATCAGCGGCGTAGGATTTCGTAATCATTCGTCCTGATGGGGAGCTACCGACTACCCTAATATCAGCCCGGCTGCCTGACGCCAGCGTCCACTTTTGCGTACACATTCCATTCGTGCCCAAGACATTTCATTGTGGTGCGAAGCGTCCCCAGTTACGCTCACCTGTTTCCCGACCTCCTTACTGTTCTGTCGACAGAGCGGGCCCACAGGCCGGTCGCAGCC | 10.1
SulfRed Sulfite reductase promoter/5′UTR: putative nitrogen-regulated promoter/5′UTR, SEQ ID NO: 58 (nucleic acid, listed as Prototheca moriformis) DNA: GGCCCAGGGCCCTGCGGATGGCCCACACCAGATCTAGCCTCTCTTATGCCATGCCCGCCTCGCTGCCCGTCGTATCCCCCCGCCGATCCGCGCGTAGGGGACCGCGGCCTGACCCACGCCACGAAAGAGCTTTGCTCCTCAATTTCTCGCCAACAGAACCGTATCAAACGCTCAACGCCTATCCCGAACAATCCGTATTCACACCAAATCGAGTATACCGGACTGGTTTGCCTAGTCTTGAAGGAAATGATCCCGTCCATGCTCGGAAGGGGGAGCGGGCGGAGGATCCTACTCATCTCTGAAATGGGATTGGTCCGAAGATGGGTTGGGCAAGCACGTGCCAAACCCCAGCGAGTTGCTGACGAGCAGGCTCATCCAATCCCCCGGCGAATCCTCCCTCACGCCCCGCATGCATACAAGTCCCTCCCACACGCCCCCTCCCATCCATTTTCGCCTGGTCCGAACGCGAGCGGCGTCGAGGCGGACCACTTGCTCCGCAGCGCCGTCTGGGTCTCCACCCCACAGCGGCTTTGCTGCCAGAGGCACCCCCCTTGCCCCACCTCCTCTTGCAGCC | 10.91

What follows are molecules tested on Prototheca moriformis (UTEX 1435) (assay: Steady state thioesterase mRNA level by real-time RT-PCR (promoter testing, normalized to cd189)). Conditions: low nitrogen medium.

Molecule | steady state C. camphora thioesterase mRNA level relative to control (C. reinhardtii beta tubulin promoter)
Aat01-Amino acid transporter 01 promoter/5′UTR: putative nitrogen-regulated promoter/5′UTR, SEQ ID NO: 62 (nucleic acid, listed as Prototheca moriformis) DNA: CGAAGGGGTCTGCATCGATTCGCGCGGTCTGGAGGCCAGCGTGACTGCTCGCGAAAATGCTCTGCCGTGTCGGGCTCTGGCTGGGGCGGCCAGAGATCTCACCGTGCCACACGCAACTGCCGCACTCTGTGCCCGCCACCTGGCGCGCACATGCGACCTCTTCCCCGTCATACCCTCTCCTCATGTGATCTTTCCACACGAGTGACGCAGGTGCGCGGAGTGGAGGGAATCAGGACGTTTTCAAGGTACCTGCTCGAGCCGTACCAACAGCTGCCGCCCGGCAAGGAAGAGATCGAGGCAGAGATTGCCCGGCTGGAGGCCCGGATAACGGAGCTCAAGAGCAAGCTGTCCGAGTGAGACCGCCCAGGTGCACGTGTCGACTCGCTATGACATGTACTCGACACAACATGAGGAATTCATCGAATTTGTAGGAAGCGGGCATTGGTACGGGAGTGGGAAAGCGAAAAAACCTCCCTCCGGCAGTGCCATCTGCCGGAGTCGAACGTTGATAGGGTTCTCGTGACAGGGTGTGACCTCTCAGCCTTGCATCAATTAAACGCTATAGACATTATCAGTAACCGTGAATCCCGCATTGGATGCCACCCGCGCGACCATTGGGGACCTGCATTACAGATCTAGGTGAGATGACAGCGAGGCAACTTCGGCCCGCGGCCCAGCTTGCGGCGCACCAATATTGGTCACGGGAAGCCACACACCGACCATAAATGAATACTTGTAAGCTATGTCAACCGATCAATGGCGTCGAAAGTGTGCCACGAGGATCCATCTGGCGGGGCGGCGTGGCGCACAAGCGCAGTCGCAATTTCTCGGACCCATCTGACCTAGGCCCAGCGCCGCGGGAGAAATCCCCGGCGGGTCCTCCACGCAGTAACCCTAATGAGTATCGAGCGCCGACCATTTACACCATCGCCCCCGAAATCCTTCCGACATTATTATTATCTTTTAGATCTTGGAACAGACTCTGCCAACC | up to four
